Source: US20180208648A1 (SCHOLAR ROCK, published 2018)

T1: human latent GDF8 (human, UniProt O14793 24-375, biotinylated (immobilized on streptavidin biosensors), site not stated)
T1 construct: also called human latent Myostatin
T1 sequence: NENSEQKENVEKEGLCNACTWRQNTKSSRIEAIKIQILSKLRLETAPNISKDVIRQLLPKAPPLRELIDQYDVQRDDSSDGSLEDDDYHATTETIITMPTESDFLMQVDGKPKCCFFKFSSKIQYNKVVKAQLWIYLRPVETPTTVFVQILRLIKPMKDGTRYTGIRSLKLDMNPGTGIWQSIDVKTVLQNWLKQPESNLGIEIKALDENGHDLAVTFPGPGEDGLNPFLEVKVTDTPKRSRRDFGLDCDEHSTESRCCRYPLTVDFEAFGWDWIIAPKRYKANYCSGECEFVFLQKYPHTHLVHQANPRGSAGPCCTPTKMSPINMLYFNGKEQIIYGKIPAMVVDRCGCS

T2: human proActivin A (human, UniProt P08476 21-426, biotinylated (immobilized on streptavidin biosensors), site not stated)
T2 construct: also called human Activin A; Inhibin-beta A pro-protein
T2 sequence: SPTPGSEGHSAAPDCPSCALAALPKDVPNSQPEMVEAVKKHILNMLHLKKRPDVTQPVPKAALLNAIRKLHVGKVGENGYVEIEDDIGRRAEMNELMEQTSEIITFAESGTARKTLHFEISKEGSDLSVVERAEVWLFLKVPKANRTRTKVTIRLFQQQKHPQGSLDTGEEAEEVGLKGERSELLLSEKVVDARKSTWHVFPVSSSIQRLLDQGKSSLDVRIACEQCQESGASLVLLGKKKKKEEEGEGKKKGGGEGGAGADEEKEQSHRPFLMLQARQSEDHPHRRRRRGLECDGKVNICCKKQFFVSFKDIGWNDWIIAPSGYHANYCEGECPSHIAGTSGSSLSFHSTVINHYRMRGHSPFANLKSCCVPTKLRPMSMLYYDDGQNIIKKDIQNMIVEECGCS

T3: human proGDF8 (human, UniProt O14793 24-375, biotinylated, site not stated)
T3 construct: also called hu proGDF8; human proMyostatin
T3 sequence: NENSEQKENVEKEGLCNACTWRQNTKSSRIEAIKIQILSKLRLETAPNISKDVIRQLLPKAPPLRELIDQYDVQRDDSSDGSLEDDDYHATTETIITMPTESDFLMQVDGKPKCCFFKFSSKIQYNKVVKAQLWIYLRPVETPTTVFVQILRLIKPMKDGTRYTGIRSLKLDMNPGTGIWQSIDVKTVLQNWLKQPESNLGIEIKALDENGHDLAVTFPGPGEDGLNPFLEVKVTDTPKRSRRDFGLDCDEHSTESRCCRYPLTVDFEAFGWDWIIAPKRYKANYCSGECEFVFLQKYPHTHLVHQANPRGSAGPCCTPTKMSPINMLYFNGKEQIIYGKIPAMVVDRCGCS

T4: human proGDF11 (human, UniProt O95390 25-407, biotinylated (NHS-PEG4-Biotin), site not stated)
T4 sequence: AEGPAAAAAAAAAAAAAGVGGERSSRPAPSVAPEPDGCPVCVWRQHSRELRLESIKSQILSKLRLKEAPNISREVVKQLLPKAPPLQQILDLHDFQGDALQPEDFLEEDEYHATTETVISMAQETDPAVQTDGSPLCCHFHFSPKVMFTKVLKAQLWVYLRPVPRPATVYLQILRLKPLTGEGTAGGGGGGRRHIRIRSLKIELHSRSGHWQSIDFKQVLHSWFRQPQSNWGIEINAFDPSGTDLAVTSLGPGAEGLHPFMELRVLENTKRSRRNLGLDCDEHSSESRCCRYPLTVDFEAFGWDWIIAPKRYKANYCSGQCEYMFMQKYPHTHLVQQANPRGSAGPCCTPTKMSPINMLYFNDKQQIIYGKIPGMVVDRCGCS

T5: murine proGDF11 (mouse, UniProt Q9Z1W4 25-405, biotinylated, site not stated)
T5 sequence: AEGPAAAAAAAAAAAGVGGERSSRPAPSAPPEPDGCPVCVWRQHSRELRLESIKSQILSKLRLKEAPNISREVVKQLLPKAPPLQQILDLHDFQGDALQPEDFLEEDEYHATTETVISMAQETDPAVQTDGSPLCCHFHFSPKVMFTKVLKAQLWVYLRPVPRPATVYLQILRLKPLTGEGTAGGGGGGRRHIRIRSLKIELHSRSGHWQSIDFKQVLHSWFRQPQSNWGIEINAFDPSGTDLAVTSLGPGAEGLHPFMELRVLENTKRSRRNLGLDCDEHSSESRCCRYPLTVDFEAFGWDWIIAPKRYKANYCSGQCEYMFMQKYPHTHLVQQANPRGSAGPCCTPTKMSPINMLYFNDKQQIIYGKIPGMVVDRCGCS

B1: GDF11 Inh-2 (antibody, V domains shown)
VH: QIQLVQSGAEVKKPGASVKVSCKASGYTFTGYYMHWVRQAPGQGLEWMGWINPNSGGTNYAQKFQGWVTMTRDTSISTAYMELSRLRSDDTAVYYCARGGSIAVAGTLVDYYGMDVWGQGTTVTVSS
VL: DIQMTQSPSSLSASVGDRVTITCQASQDISNYLNWYQQKPGKAPKLLIYDASNLETGVPSRFSGSGSGTDFTLTISSLQPEDVATYYCQKYSTAPLTFGGGTKVEIKR
notes: also called Clone GDF11 Inh-2
B2: GDF11 Inh-4 (antibody, V domains shown)
VH: QVQLVQSGAEVKKPGASVKVSCKASGYTFTSYGISWVRQAPGQGLEWMGWISAYNGNTNYAQKLQGRVTMTTDTSTSTAYMELRSLRSDDTAVYYCARTPPLWFGEYGAFDIWGQGAMVTVSS
VL: DIQMTQSPSSLSASVGDRVTITCQASQDISNYLNWYQQKPGKAPKLLIYDASNLETGVPSRFSGSGSGTDFTLTISSLQPDDFATYYCQQSYTTPITFGQGTRLEIKR
notes: also called Clone GDF11 Inh-4

Key:
human latent GDF8 = target: T1, human latent GDF8; assay: BLI (ForteBio Octet QKe), antigen on streptavidin biosensor, antibody in solution
human proActivin A = target: T2, human proActivin A; assay: as above
human proGDF8 = target: T3, human proGDF8; assay: as above
human proGDF11 [1] = target: T4, human proGDF11; assay: cell-based or functional assay
murine proGDF11 = target: T5, murine proGDF11; assay: cell-based or functional assay
human proGDF11 [2] = target: T4, human proGDF11; assay: cell-based or functional assay; remark: listed apart in the source

| Binder | binding result (human latent GDF8) | binding result (human proActivin A) | binding result (human proGDF8) | EC50, proGDF11 activation assay at 50 nM proGDF11 (human proGDF11 [1]) [nM] | Murine proGDF11 % inhibition (proGDF11 activation assay, CAGA luciferase reporter in 293T cells) (murine proGDF11) [%] | Human proGDF11 % Inhibition (proGDF11 activation assay, CAGA luciferase reporter in 293T cells) (human proGDF11 [2]) [%] |
| --- | --- | --- | --- | --- | --- | --- |
| B1 | no binding (tested: 50 µg/mL) | no binding (tested: 50 µg/mL) | no binding (tested: 50 µg/mL) | 27.5 | 95 | 100 |
| B2 | no binding (tested: 50 µg/mL) | no binding (tested: 50 µg/mL) | no binding (tested: 50 µg/mL) | 26.7 | 87 | 94 |
